1 molecule from article PMC4293345 (Molecular and cellular neurosciences, 2014) can be followed below.

Where two headings read alike, the source gives them in different places.

The target of test [1] is T1, MBP-tagged NCS-1 (neuronal calcium sensor-1) (UniProt P62166 1-190). Kind of test: pull-down.
Test [2] has as its target T1, MBP-tagged NCS-1 (neuronal calcium …). Put plainly: pull-down. The source holds these as a separate data set.

T1 sequence (P62166 whole entry): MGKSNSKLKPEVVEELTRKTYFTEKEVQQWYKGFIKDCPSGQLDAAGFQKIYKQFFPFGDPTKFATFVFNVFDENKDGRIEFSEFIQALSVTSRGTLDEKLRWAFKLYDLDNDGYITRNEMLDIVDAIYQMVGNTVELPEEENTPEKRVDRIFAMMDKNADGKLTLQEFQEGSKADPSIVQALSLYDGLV

B1: GST-tagged IQ-like domain of CaV2.1 (domain or fragment)
chain: LMALIRTALDIKIAKGGADKQQMDAELRKEMMAIWPNLSQKTLDLLVTPHKSTDLTVGKIYAAMMIMEYYRQSKAKKLQAMREEQNRTPLMFQRMEPPSPTQEGGPSQNALPSTQLD
Regarding B1, the “relative binding (ratio of IQ-GST to NCS-1-MBP)” value in test [1] is 0.56 ± 0.06; in test [2] it was 0.57 ± 0.06.
